# Entries after “also recorded” stand apart in the source; their conditions may differ. Like-named read-outs stand apart in the source and are kept apart here.
# What was measured:
# [1] = test system: PNA-induced glycopeptide bundle in DPPC bilayer membrane; assay: QCM binding isotherm, PNA-induced glycopeptide bundle; conditions: QCM method
# Excerpt: (§1) We determined binding amounts of proteins to the induced glycopeptide bundles by QCM measurements. […] The molecular weights of PNA and ConA were 98,000 [27] and […] [33], respectively, assuming that they formed tetramers.
# We attempted quantitative analysis of the binding isotherms obtained from the QCM and electrochemical measurements. The curves in Figure 5 and Figure 7 were obtained by curve-fitting the experimental values using the Langmuir binding isotherm. It can be seen that both curves are in good agreement with the experimental values. […] In the electrochemical measurement, the value of ΔI corresponds to the amount of the closed channel in the formed complex between the protein and glycopeptide bundle that acted as an ion channel. ΔImax corresponds to the total channel amount. Therefore, we used ΔI and ΔImax as the binding amount and saturated binding amount, respectively, for the Langmuir binding isotherm.
# (§2) For the binding isotherm parameters obtained by the QCM measurements, the saturated binding amount, Wmax, for the protein used to induce the glycopeptide bundle was slightly larger, but a systematic relationship could not be seen in the binding constants, K. However, in the parameters obtained from the electrochemical method, the binding constant, K, to the target protein used to induce the glycopeptide bundle acting as a channel, was higher than that of other proteins, and the ΔImax value corresponding to the saturated binding amount was also remarkably larger. In addition, the selective detection of the target protein to the DPPC bilayer membrane with the target protein-induced glycopeptide bundle was evaluated from the ratio to the saturated binding amounts of other proteins. For example, the value of the selectivity of PNA to ConA, of 1.34, in the QCM method of the PNA-induced sensing membrane was obtained from Wmax, PNA/Wmax, ConA.
# We previously reported that heating a vesicle containing a peptide above its gel–liquid crystal transition temperature, Tc, increases the fluidity of the lipid bilayer membrane and allows the peptide to easily diffuse laterally through the membrane. At this time, if a protein that specifically interacts with the sugar chains at the terminal of the glycopeptides is present, the glycopeptides are re-arranged in the membrane, and form specific binding site to the target protein on the glycopeptide bundle. The target protein was added to aqueous solution containing DPPC vesicle with glycopeptides and a spacer peptide in the bilayer membrane. The molar ratio of the added protein to the glycopeptides was 2. The Tc of DPPC is 41 °C [41]. The vesicle solution was incubated at 60 °C above Tc for 15 min to form a glycopeptide bundle. […]
# [2] = test system: ConA-induced glycopeptide bundle in DPPC bilayer membrane; assay: QCM binding isotherm, ConA-induced glycopeptide bundle; conditions: QCM method, Langmuir fit, 25 °C
# Excerpt: as §1
# We attempted quantitative analysis of the binding isotherms obtained from the QCM and electrochemical measurements. The curves in Figure 5 and Figure 7 were obtained by curve-fitting the experimental values using the Langmuir binding isotherm. It can be seen that both curves are in good agreement with the experimental values. […]
# as §2, with “For example, the value of the selectivity of PNA to ConA, of 1.34, in the QCM method of the PNA-induced sensing membrane was obtained from Wmax, PNA/Wmax, ConA.” left out
# [3] = test system: PNA-induced glycopeptide bundle in DPPC bilayer membrane; type: binding; conditions: Electrochemical method
# Excerpt: The response current waves were very similar to those derived according to Equation (7) based on the equivalent circuit in Figure A2. The equivalent circuit was a parallel circuit consisting of a capacitor (DPPC bilayer membrane; Cmemb), a resistor (glycopeptide bundle not bound to the target protein as an open channel; Ropen), the serial circuit of a capacitor (bound target protein on glycopeptide bundle; Cprotein), and a resistor (target protein bound to the glycopeptide bundle as a closed channel; Rclose). First, we verified whether the electrochemical properties of the DPPC bilayer membrane with a target protein-induced glycopeptide bundle could be expressed by the proposed equivalent circuit. […] The sensing membrane was used containing the PNA-induced glycopeptide bundle, and the added protein was PNA. In the simulation, the resistances, Ropen = 6.00 × 10^4 Ω and Rclose = 1.73 × 10^4 Ω, and capacitances, Cmemb = 1.00 × 10^−6 F and Cprotein = 3.00 × 10^−6 F, were held constant. Furthermore, x (=ΔI/ΔImax) was calculated from the ratio of the current changes, ΔI (Figure A4), between before and after the protein was added at peak voltage applied, and the saturated current changes, ΔImax (Table 2); this is described below.
# (§3) We attempted to detect the protein using the sensing membrane using the electrochemical method. From the simulation, the value of the increase in the current before and after protein addition at the peak voltage, ΔI, was proportional to the fraction of the closed channel that is protein bound glycopeptide bundle (Figure A4).
# We attempted quantitative analysis of the binding isotherms obtained from the QCM and electrochemical measurements. The curves in Figure 5 and Figure 7 were obtained by curve-fitting the experimental values using the Langmuir binding isotherm. […] In the electrochemical measurement, the value of ΔI corresponds to the amount of the closed channel in the formed complex between the protein and glycopeptide bundle that acted as an ion channel. ΔImax corresponds to the total channel amount. Therefore, we used ΔI and ΔImax as the binding amount and saturated binding amount, respectively, for the Langmuir binding isotherm [36].
# [4] = test system: ConA-induced glycopeptide bundle in DPPC bilayer membrane; assay: Electrochemical detection (peak current response, channel blockage), ConA-induced glycopeptide bundle; type: binding; conditions: Electrochemical method, Langmuir fit, ±5 mV triangular voltage, 11.24 Hz, 0.1 M HEPES-Tris pH 7.4, 0.1 M KCl
# Excerpt: as §3
# The curves in Figure 5 and Figure 7 were obtained by curve-fitting the experimental values using the Langmuir binding isotherm. […] In the electrochemical measurement, the value of ΔI corresponds to the amount of the closed channel in the formed complex between the protein and glycopeptide bundle that acted as an ion channel. ΔImax corresponds to the total channel amount. Therefore, we used ΔI and ΔImax as the binding amount and saturated binding amount, respectively, for the Langmuir binding isotherm [36].
# At this time, if a protein that specifically interacts with the sugar chains at the terminal of the glycopeptides is present, the glycopeptides are re-arranged in the membrane, and form specific binding site to the target protein on the glycopeptide bundle. The target protein was added to aqueous solution containing DPPC vesicle with glycopeptides and a spacer peptide in the bilayer membrane. The molar ratio of the added protein to the glycopeptides was 2. […] The vesicle solution was incubated at 60 °C above Tc for 15 min to form a glycopeptide bundle. […]
# [5] = cited from earlier work
# Excerpt: This implies that the proteins with the same sugar binding sites can be selectively recognized if their 3D-structures are different. […] The PNA-induced glycopeptide bundle has a spatial arrangement of galactose corresponded to its binding sites in PNA. Two ... || We used PNA (Wako Pure Chemical Industrials, Ltd., Osaka, Japan) and ConA (CALBIOCHEM, San Diego, CA, USA) as the target proteins.
# [6] = PNA-induced glycopeptide bundle in DPPC bilayer, Langmuir fit, 25 °C
# [7] = PNA-induced bundle, ratio of ΔImax
# [8] = PNA-induced glycopeptide bundle in DPPC bilayer, Langmuir fit, ±5 mV triangular voltage, 11.24 Hz, 0.1 M HEPES-Tris pH 7.4, 0.1 M KCl
molecule,measurement,setting,value
"PNA: peanut lectin with specific binding site for galactose (protein, UniProt P02872 24-273, looked up) Galactose-binding lectin: AETVSFNFNSFSEGNPAINFQGDVTVLSNGNIQLTNLNKVNSVGRVLYAMPVRIWSSATGNVASFLTSFSFEMKDIKDYDPADGIIFFIAPEDTQIPAGSIGGGTLGVSDTKGAGHFVGVEFDTYSNSEYNDPPTDHVGIDVNSVDSVKTVPWNSVSGAVVKVTVIYDSSTKTLSVAVTNDNGDITTIAQVVDLKAKLPERVKFGFSASGSLGGRQIHLIRSWSFTSTLITTTRRSIDNNEKKIMNMASA",Selectivity of PNA to BSA,"[1]; PNA-induced bundle, ratio of Wmax",2.47
same,Binding preference in QCM (in words),[1]; PNA-induced glycopeptide bundle,preferentially bound
same,"Binding constant, K",[1]; [6],8.2e+08 M⁻¹
same,"Saturated binding amount, Wmax",[1]; [6],0.47 ng
same,"Binding constant, K",[2],9.5e+08 M⁻¹
same,"Saturated binding amount, Wmax",[2],0.21 ng
same,Selectivity of PNA to BSA,[3]; [7],17.8
same,Selectivity of PNA to ConA,[3]; [7],9.53
same,"Binding constant, K",[3]; [8],2.1e+09 M⁻¹
same,"Saturated current change, ΔImax",[3]; [8],0.41 μA
same,Current response / recognition (in words),[3]; PNA-induced sensing membrane,specific response; also recorded: very large current responses
same,"Binding constant, K",[4],1.1e+09 M⁻¹
same,"Saturated current change, ΔImax",[4],0.035 μA
same,Sugar binding specificity,[5],specific binding sites for galactose
